We go through 19 sequences from the DeepSol protein solubility set.

The data set in a line: soluble on expression in E. coli; label from the status in PepcDB or PDB records.
“MSYDYIVSQYLAYIKDITLEGCKAEEIFDYFKDKLNIVSKEGCDKPYIKVYKNNRLYFSYYGIPAINEFWPFLNALVRISNNVIQLDEKEKELAANIRGNIKLFVTPDCTKCPIAAELLYQLPILNSNISLEIIDVTTYDDLGKKHRVLNVPKIVLNEKTEIPGSFPPTIILKMLAKGSEQH”: the “soluble on expression in E. coli” value was “soluble”. For “MFTDSTAKTVAPYTWKTDAGARATSTSDCIVLVLNGNNPIVADVQSCNADTTLPALGVMCGKRAWVY”, the “soluble on expression in E. coli” value was “soluble”.

For the sequence “MGHHHHHHSHMSDIYQHFRKDERAFIDQALEWKRIVQEQYRMKLTDFLDPREQVILSAVTGQADVGLAFSGGYDRAERKRAILFPEYITPEESDFELQAFNVRYADKFVSVDHRSLLGALMGIGLKRQKFGDIVFSETAVQLIVSADTADFVAAQLTQAGKAAVSLEKIDLSDLNIPAVDVEIRDDTVSSLRLDAVCASMSRQSRQKSQTLVKNGLVKVNWKVVEDPSYIVAEGDMLSIRGFGRCSLTKIEGKTKKDKWRVTFERQK”, the “soluble on expression in E. coli” value is reported as “not soluble”.

On to “IPEYVDWRQKGAVTPVKNQGSCGSCWAFSAVVTIEGIIKIRTGNLNQYSEQELLDCDRRSYGCNGGYPWSALQLVAQYGIHYRNTYPYEGVQRYCRSREKGPYAAKTDGVRQVQPYNQGALLYSIANQPVSVVLQAAGKDFQLYRGGIFVGPCGNKVDHAVAAVGYGPNYILIKNSWGTGWGENGYIRIKRGTGNSYGVCGLYTSSFYPVKN”, for which the “soluble on expression in E. coli” value is given as “soluble”. The same measure for “KPPIPPQVEEEYYTIAEFQTTIPDGISFQAGLKVEVIEKNLSGWWYIQIEDKEGWAPATFIDKYKKTSNASRPNFLAPLPHEVTQLRLGEAAALENNTGSEATGPSRPLPDAPHGVMDSGLPWSKDWKGSKDVLRKASSDMSASAGYEEISDPDMEEKPSLPPRKESIIKSEGELLERERERQRTEQLRGPTPKPPGVILPMMPAKHIPPARDSRRPEPKPDKSRLFQLKNDMGLECGHKVLAKEVKKPNLRPISKSKTDLPEEKPDATPQNPFLKSRPQVRPKPAPSPKTEPPQGEDQVDICNLRSKLRPAKSQDKSLLDGEGPQAVGGQDVAFSRSFLPGEGPGRAQDRTGKQDGLSPKEISCRAPPRPAKTTDPVSKSVPVPLQEAPQQRPVVPPRRPPPPKKTSSSSRPLPEVRGPQCEGHESRAAPTPGRALLVPPKAKPFLSNSLGGQDDTRGKGSLGPWGTGKIGENREKAAAASVPNADGLKDSLYVAVADFEGDKDTSSFQEGTVFEVREKNSSGWWFCQVLSGAPSWEGWIPSNYLRKKP”: “soluble”. The value for “MGSDKIHHHHHHMVLQHYFRHYCRSFCSPDDKALFMQCSRLTQVDFDQLTLGAQVLEADSHGAKVYLLTDGNFLKVFRRKRLISSALLRPYSQRFVDNAARLAQLGIPTLEVISQHKLDLPGRTAVLYRPLPGRTLLQMSRDDGFSWDTYLPRLIELIRQLHRSGVYFRSLHLGNVVVTPDQRLGLIDVADMRFLRPPLSARMIRRNVQHMVRYIERENLGDRFPLAAFEAALLTR” was “not soluble”; that for “MGSDKIHHHHHHMWKELVESISNDMDNVDECFRPTHFWRMGAEYLQQDLDTYGITKFRSLPSTLGYFVPTYLFNGMITEPKKYAELASRCQDIVVTPKAKLFMTDFLSGESQARADFRVYLASQSNRAPYTEHFSESKVGEPVEHFEFEGRNYSRSSLNYLLGINFLKQHISDLSVKTVVEIGGGFGSLGEILLSDERNDTFYINVDIPPTCIFSTFYLQSVFGQSHVADYSVLSKQALVIDDLRSKHKAAIMCPWQLPSLEGKIDLFVNFISFQEMEPDIVENYLSEIDRLQSTYILLRNLREGKQLAHDDSQVGVKKAIKSDDYDKFLPDYELLATNVLPFGYQTIDGFHSELRLYRRKQPKLG” was “not soluble”. Consider “MSESFAQLFEESLKVLETRQGSIVSGTVVAIQKGFVLVDAGLKSESAIPVAEFLNAQGELEIQVGDTVNVALDAVEDGFGETKLSREKAVRHESWIELEKAYEEKATVIGLIGKVKGGFTVELNGVRAFLPGSLVDTRPAREADHLLGKELEFKVIKLDQKRNNVVVSRRAVIESENSQEREQVLENLVEGSEVKGVVKNLTEYGAFVDLGGVDGLLHITDMAWKRVKHPSEIVNVGDEVTVKVLKFDKDRTRVSLGLKQLGQDPWAAIAENHPVNSKLTGKVTNLTDYGCFVEILDGVEGLVHVSEMDWTNKNIHPSKVVSLGDTVEVMVLEIDEERRRISLGLKQCKANPWTQFADTHNKGDKVTGKIKSITDFGIFIGLEGGIDGLVHLSDISWSISGEEAVRQYKKGDEVSAVVLAVDAVKERISLGIKQLEEDPFNNFVAINKKGAVVSATVVEADAKGAKVELAGGVEGYIRSADLTSEVAVGDVVEAKYTGVDRKSRIVHLSVKAKDQAEEAAAVASVNNKQEDIVIPNAMAEAFKAAKGELEHHHHHH”, for which the “soluble on expression in E. coli” value is given as “not soluble”. The same measure for “MRPYYIAIVGSGPSAFFAAASLLKAADTTEDLDMAVDMLEMLPTPWGLVRSGVAPDHPKIKSISKQFEKTAEDPRFRFFGNVVVGEHVQPGELSERYDAVIYAVGAQSDRMLNIPGEDLPGSIAAVDFVGWYNAHPHFEQVSPDLSGARAVVIGNGNVALDVARILLTDPDVLARTDIADHALESLRPRGIQEVVIVGRRGPLQAAFTTLELRELADLDGVDVVIDPAELDGITDEDAAAVGKVCKQNIKVLRGYADREPRPGHRRMVFRFLTSPIEIKGKRKVERIVLGRNELVSDGSGRVAAKDTGEREELPAQLVVRSVGYRGVPTPGLPFDDQSGTIPNVGGRINGSPNEYVVGWIKRGPTGVIGTNKKDAQDTVDTLIKNLGNAKEGAECKSFPEDHADQVADWLAARQPKLVTSAHWQVIDAFERAAGEPHGRPRVKLASLAELLRIGLG”: “soluble”.

“MSLASDPFEAPIPGLHACIDPIAVAHNLEVLRQRLGVGVDGPRIWATVKADAYGHGLHNVLPGLRAADGIAVRHLHEAHQCRRVGWSGPIMVYAGLTHEREAALLTLQQLHLVITDMTQLEWLPGKPLYSCAPWIWLRYIGATRLGGLDASEYRRAYARCRELQQHGALRGVGHLNHYANAASVGDLEREHADFEACIRGLPGPVSTCNSAAACVLPTMAARTDWVRPGLALYGVSPIPGREGHHHHHH”: the “soluble on expression in E. coli” value is on record as “not soluble”. The value for “MGSDKIHHHHHHADDSYLIDGGKANPYYNGNMMQYLESRPDYFKDLVEVIRLSGMEDVFEDEQITFFAPTDWSIRGSFNYLNRIWYRMGHDSIKSFSQIKPEVWREMLSMYIVKDKYLLKDIPQIDTTAIAAYPGQAFLSYGQQPMNMGVVYYDANNVKYAGARQIIYSYVYDFTIGDMKNAYVATSDIQPTNGVVHVLRLTDHAFGFEPYLFATKAINATIETEPDN” was “not soluble”; that for “RWETHVYRAVKDLLVGLGFTEVLQLVLTSPRLVEAAGFSSMAVEVLNPVQQEYSVLRPTLLITLLQTLRENQHRRKPVKVFEAGNAVYLEDGEPRDEEKLALGVLDEEAGFEDVQAPLYAVLRIMGVDFEVEEASHPMFMEGRTAAVKVGGERLGYIGEVKPEVLEAFGLEYPVAAAEISLEVLARWTSRT” was “not soluble”. The same measure for “MGSDKIHHHHHHMDKRNSCYLCFGFQSRILARESALMDTQSLQAFLAVADHGSFSLAAEQLHLTQPAVSKRIAGLEGQVGAQLFDRLNRRVTLTEAGRTLLPRARQILVMFDDSRRALSNLSGDISGSLTMATSHHVGLHRLPPLLKAYTQAYPDVRMDMRFLDSEQAYQGVLDGDLELAVVTLAPVPDPALTVVPVWIDQLRFVCGREHALAGRDTVALSALSDYDAVLPGHLTFTRGIVVDTFARDGLQVNVSLSTNYLETLKMMVAIGLGWSVLPETMIDDEIEVIPIDHRPIQRPLGYLFHKSRTLSNAARAMLEMLDAARDTTARQWV”: “not soluble”. For “MGSDKIHHHHHHSCGNKDKGTTVPEGNPSDREAMLKNVADNIVIPANAKFEIKLDNMIAKSDVFRNNPTVTTLSEYRIAWAEAYIEWQKIGIFDFGPAADVALNSYMNVYPANVSNINANILSGNANLEVFESYSAQGFPAIDYLINGSADTDDDIVALYVTGEDADKRKAYLLRLTNQMHAKFEAVNAAWKGDYRNTFVSSTGTGLNASTSVMVNGIVFYYERFIRSGKFGIPSGAMTGTPLNASVEAYYKKDIGKILAQTAQQAFVDYFNGKGVTTGIEGPSLKTYLNALDAKDATTKQPLSEIINNQFTVVDSKLNVLSDNLSNEVLTNKAAMVAVYNEMQKAVRMLKVDMTSALSVTITYTDNDGD”, the “soluble on expression in E. coli” value is recorded as “not soluble”.

In the case of “MSLETAGQIIGGETAAVLIRQKAGEPIELGDLLVAEGEGYTILQVKDLRYSSQIPQGMRELASGFNLEGYGREVELLEPELRNYIIAEARPILHVRDGQPMIPKRLPRFFREVRRIREGDLDFLERPGNPVFLGNVRSGSKVLDTPVYVDAVDAITHHILIPATTGRGKSNLVKVMLWSLAEMDRVGILVLDPHDEYYGRNEAGLGRHPSDNVVYYSPDAPVGGNTLTINLRSLRPEHFEGIIPFTQAQEQAIARYYNEYGDGWILKIVEGEELPGVQPVTLNVLRRIFDVILGVHLDDGKIKSRGGVFRERGGESTIKDIAASLEDGKNRCGGHLKAHGRGEGHHHHHH”, the “soluble on expression in E. coli” value is listed as “not soluble”. The value for “MGSDKIHHHHHHMTIMILREIIDELSYQLKQRRIINVCVSPAYTSVMLDDQSIGISHTITDGEIEGAGEIIGKNAYDVVINNLDSNLQRSLSLAILNALGSMIDFTQGDPINLYSGGKLCVFGFSPQLSYSNFDSVIVYDFMSTENKKVGNTEIKPYSSLSREVCSTALIFASSIVNNTIDRIISQISANHLILTGISSVDAPITLKNHGFEVLGKLFPVEKYRVFRTICEGGSNKLLSKYIMRYFKKL” was “not soluble”; that for “MGSDKIHHHHHHMSEVLKRRMRCAVYTRKSTDEGLDQEYNSIDAQRDAGHAYIASQRAEGWIPVADDYDDPAFSGGNMERPALQRMMADIEAGKIDVVVIYKIDRLTRSLADFSKMVEVFERYAVSFVSVTQQFNTTTSMGRLMLNILLSFAQFEREVTGERIRDKISASKRKGMWMGGVPPLGYDVENRRLVPNEREAKLIRHIFQRFVELGSSTALVKELKLDGVTSKAWTTQDGKTRDGRLIDKGHIYKLLSNRTYLGELRHKDQWYQAEHPPIINRELWDSVHAILETNGRVRGNTTRAKVPYLLKGIVFGNDGRALSPWHTTKKNGRRYRYYVPQRDAKEHAGASGLPRLPAAELESAVLDQLRAILRAPNLLGEMLPQAIKLDPTLDEAKITVAMTRLDAIWDQLFPAEQTRIVKLLVEKVIVSPNDLEVRLRANGIERLVLELRPEPVEQQEVARA” was “not soluble”; that for “LITPQYKSEAKLYVLSKETTLTSLADLQIGSQLTQDYKILVGSRPVLQGVVDHMKLDMTYRKLEKKLTIDNPNNTRILTLTIKDPNPYLAKSIVDEVANTASDYIGEIMEMVPPKLIEDGEVASEKASPNVLKNT” was “not soluble”. The value for “GQANHPTAAVVTEKQQMLEQHLQDVRKRVQDLEQKMKVVENLQDDFDFNYKTLKSQGDMQDLNGNNQSVTRQKMQQLEQMLTALDQMRRSIVSELAGLLSAMEYVQKTLTDEELADWKRRQQIACIGGPPNICLDRLENWITSLAESQLQTRQQIKKLEELQQKVSYKGDPIVQHRPMLEERIVELFRNLMKSAFVVERQPCMPMHPDRPLVIKTGVQFTTKVRLLVKFPELNYQLKIKVCIDKDSGDVAALRGSRKFNILGTNTKVMNMEESNNGSLSAEFKHLTLREQRCGNGGRANCDASLIVTEELHLITFETEVYHQGLKIDLETHSLPVVVISNICQMPNAWASILWYNMLTNNPKNVNFFTKPPIGTWDQVAEVLSWQFSSTTKRGLSIEQLTTLAEKLLGPGVNYSGCQITWAKFCKENMAGKGFSFWVWLDNIIDLVKKYILALWNEGYIMGFISKERERAILSTKPPGTFLLRFSESSKEGGVTFTWVEKDISGKTQIQSVEPYTKQQLNNMSFAEIIMGYKIMDATNILVSPLVYLYPDIPKEEAFGKYCR” was “soluble”.
